Experimental data reported in PMC4227133.

Target: Gal4 Cyclin T1s with a mutated Y175

- other: 2 fold
B1: Hexim1, endogenous in HEK293 cells, O94992 1-359 (natural protein)
chain: MAEPFLSEYQHQPQTSNCTGAAAVQEELNPERPPGAEERVPEEDSRWQSRAFPQLGGRPGPEGEGSLESQPPPLQTQACPESSCLREGEKGQNGDDSSAGGDFPPPAEVEPTPEAELLAQPCHDSEASKLGAPAAGGEEEWGQQQRQLGKKKHRRRPSKKKRHWKPYYKLTWEEKKKFDEKQSLRASRIRAEMFAKGQPVAPYNTTQFLMDDHDQEEPDLKTGLYSKRAAAKSDDTSDDDFMEEGGEEDGGSDGMGGDGSEFLQRDFSETYERYHTESLQNMSKQELIKEYLELEKCLSRMEDENNRLRLESKRLGGDDARVRELELELDRLRAENLQLLTENELHRQQERAPLSKFGD
